Results published in the RNAGym collection of RNA variant scans (doi:10.7554/elife.80360).

B1: CPEB3 Ribozyme (parent)
chain: GGGGGCCACAGCAGAAGCGUUCACGUCGCGGCCCCUGUCAGAUUCUGGUGAAUCUGCGAAUUCUGCUGU

Variants of: B1
Assay: self-cleavage, relative activity (ratio to wild type); higher = more cleavage; co-transcriptional

Variant | self-cleavage
U20C G58C | 0.147
U20C G58A | 0.161
U20C G58U | 0.204
G19U C32A | 0.281
G19U C32G | 0.157
U20C U36A | 0.125
G19U U38G | 0.201
G19U U38A | 0.227
U20C G56A | 0.223
G19U U61G | 0.262
G19U U61A | 0.217
G19U U61C | 0.194
U20C C33U | 0.219
U20C C33A | 0.286
U20C C33G | 0.113
U20A C57A | 0.195
U20A C57U | 0.152
U20A C57G | 0.092
G19U U21C | 0.218
U20A U38G | 0.23
G19U U36G | 0.222
U20C C39A | 0.224
U20C C39G | 0.201
U20C C39U | 0.176

Variant | self-cleavage
G19C U69G | 0.231
G19C U69C | 0.357
G19U A40C | 0.189
G19U A40U | 0.237
G19U A40G | 0.332
G19C U36A | 0.188
G19C U36C | 0.0775
G19C U36G | 0.141
U20C G25C | 0.249
U20C G25A | 0.68
U20C G25U | 0.616
U20A U69C | 0.225
U20A U69G | 0.282
U20C A51G | 0.272
U20A U43C | 0.154
U20A U43G | 0.123
U20C A59C | 0.124
U20C A59G | 0.277
U20C A59U | 0.15
G19U U69C | 0.925
G19U U69A | 0.739
U20A U67C | 0.127
U20A U67G | 0.271
G19U G37U | 0.199

Variant | self-cleavage
G19U G37C | 0.175
G19U G37A | 0.19
G19U G58A | 0.352
G19U G58U | 0.553
U20C A52U | 0.109
U20C A52C | 0.181
U20C A40G | 0.212
U20A U44G | 0.204
U20A U44C | 0.139
U20A U44A | 0.15
U20A U61C | 0.137
U20A U61A | 0.123
U20A U61G | 0.137
G19U C29G | 0.175
G19U C29A | 0.161
U20C U44A | 0.185
U20A A52C | 0.0922
U20A A52U | 0.143
U20A A52G | 0.117
G19U U20C | 0.166
G19U U20A | 0.0978
G19U U46C | 0.499
G19U U46G | 0.596
G19U U46A | 0.591

Variant | self-cleavage
U20A G50C | 0.188
U20A G50U | 0.141
U20C C57G | 0.261
U20C A42G | 0.161
G19U C33U | 0.519
G19U C33A | 0.101
G19U C33G | 0.203
U20C C29U | 0.128
U20C C29A | 0.227
G19U G41U | 0.157
G19U G41A | 0.181
G19U G41C | 0.16
G19U U43G | 0.223
G19U U43A | 0.202
G19U U43C | 0.333
G19U G50A | 0.543
G19U G50C | 0.458
U20C A60U | 0.208
U20C A60G | 0.166
U20C A60C | 0.142
G19U G47U | 0.64
U20C C32A | 0.192
U20A C63A | 0.129
U20A C63G | 0.13

Variant | self-cleavage
U20A C34U | 0.0989
U20A C34A | 0.196
U20A C34G | 0.196
G19U A60G | 0.289
G19U A60U | 0.168
U20C U49C | 0.214
U20C U49A | 0.137
U20C U49G | 0.231
U20C G48A | 0.189
U20C G48U | 0.242
G19C U64C | 0.123
U20C G68A | 0.336
G19U G56C | 0.222
G19U G56A | 0.301
U20A U55A | 0.237
U20A U55G | 0.112
U20A U55C | 0.118
U20A G58A | 0.208
U20A G58U | 0.152
U20A G31A | 0.135
U20A G31U | 0.17
U20A G31C | 0.0954
G19U G68C | 0.791
G19U G68U | 0.738

Variant | self-cleavage
U20A A60G | 0.146
U20A A60C | 0.114
G19U U64G | 0.192
G19U U64A | 0.233
G19U U64C | 0.249
U20A G68U | 0.142
U20A G68C | 0.253
U20A G68A | 0.196
G19U C35G | 0.199
G19U A59U | 0.158
G19U A59G | 0.66
U20C U43C | 0.212
U20A A51C | 0.151
U20A A51G | 0.186
U20A A51U | 0.153
U20A U53C | 0.154
U20A U53G | 0.136
U20A U53A | 0.0892
G19C U62G | 0.162
U20A C32U | 0.148
U20A C32G | 0.171
U20A C32A | 0.153
G19U C54U | 0.625
G19U C54A | 0.182

Variant | self-cleavage
G19U C54G | 0.317
G19C U53G | 0.158
G19C U53A | 0.224
U20A C35G | 0.183
U20A C35A | 0.115
G19U G65A | 0.254
G19U G65U | 0.148
G19U G65C | 0.287
U20A G28C | 0.14
U20A G28U | 0.182
U20A G28A | 0.12
U20C G28C | 0.133
U20C G28A | 0.117
G19U G28U | 0.116
G19U G28A | 0.122
G19U C57U | 0.21
G19U C57G | 0.218
G19U C66A | 0.271
G19U C66G | 0.27
U20C C34U | 0.13
U20C C34A | 0.176
U20C C34G | 0.139
U20A C54G | 0.194
U20A C54U | 0.124

Variant | self-cleavage
G19U C24G | 0.121
U20A A40G | 0.11
U20C G31C | 0.148
U20C G31A | 0.261
U20C G31U | 0.204
U20A C22U | 0.176
U20A C22A | 0.152
U20A C22G | 0.119
G19U C27A | 0.947
G19U C27G | 0.82
U20A A23C | 0.149
G19U U26A | 0.272
G19U U26C | 0.256
G19U U26G | 0.256
G19C U38G | 0.185
G19U G30A | 0.143
G19U G30U | 0.166
U20C C35G | 0.129
U20C C35U | 0.145
U20C C35A | 0.169
U20C G30U | 0.153
U20C G30C | 0.178
G19C U61C | 0.161
G19C U61G | 0.116

Variant | self-cleavage
G19C U20G | 0.126
G19C U20C | 0.19
G19C U20A | 0.109
U20A G41C | 0.133
U20A C24A | 0.203
U20A C24U | 0.0896
G19U U62A | 0.244
G19U U62C | 0.256
G19U U62G | 0.251
U20A U62A | 0.0929
G19C U43A | 0.127
G19C U49C | 0.104
G19C U49G | 0.182
G19U G25C | 0.122
G19U G25A | 0.177
G19U G25U | 0.14
G19C U46A | 0.177
G19C U46C | 0.159
U20A A59G | 0.125
U20A A59C | 0.0876
U20C C66U | 0.272
U20C C66A | 0.204
U20A C66U | 0.205
U20A C66A | 0.154

Variant | self-cleavage
U20A C66G | 0.133
U20C C22U | 0.229
U20C C22G | 0.214
U20A U21C | 0.0963
U20A A42C | 0.0988
U20A A42G | 0.0639
U20C G47A | 0.243
U20C G47C | 0.188
U20C G47U | 0.239
G19U A52C | 0.432
G19U A52U | 0.474
G19U A52G | 0.589
G19U C63A | 0.179
G19U A23U | 0.494
G19U A23C | 0.333
G19C U21A | 0.109
G19C U21C | 0.142
U20C C27U | 0.114
U20C C27G | 0.136
U20A G65C | 0.113
U20A G65U | 0.19
U20A C27G | 0.152
U20A C27U | 0.149
U20C A23C | 0.243

Variant | self-cleavage
U20C A23U | 0.257
U20C G41A | 0.247
U20C G41C | 0.139
U20C G41U | 0.137
U20A G25A | 0.198
U20A G25C | 0.165
U20A G25U | 0.135
U20A U64A | 0.326
U20A U64G | 0.11
U20A U64C | 0.122
G19C U55G | 0.172
G19C U55A | 0.132
G19C U55C | 0.163
G19U U55C | 0.191
U20C U21A | 0.208
U20C U46G | 0.275
U20C U46C | 0.257
U20C U46A | 0.262
U20A U36G | 0.201
U20A U36C | 0.149
U20A G47A | 0.176
U20C G65A | 0.141
G19U C45G | 0.4
G19U C45U | 0.469

Variant | self-cleavage
U20A G48A | 0.124
U20C G37U | 0.114
U20C G37A | 0.102
U20C C63G | 0.162
U20C C63A | 0.138
U20C C63U | 0.229
U20C G50U | 0.245
G19U U44A | 0.354
G19U U44G | 0.398
G19U U67A | 0.479
G19U U67G | 0.546
G19U U67C | 0.461
U20A U26C | 0.106
U20A U26G | 0.182
U20A C29A | 0.194
U20A C29U | 0.155
U20A C29G | 0.157
U20C U38A | 0.181
U20C U38G | 0.24
U20C U38C | 0.212
G19U C22U | 0.107
G19U C22G | 0.164
G19U C22A | 0.14
U20A U46C | 0.0817

Variant | self-cleavage
U20A U46G | 0.128
U20A U46A | 0.216
U20A C39A | 0.169
U20A C39U | 0.125
G19U G48U | 0.681
G19U G31C | 0.163
G19U G31A | 0.258
G19U G31U | 0.168
U20A G37C | 0.156
U20A G37A | 0.13
G19C U26C | 0.153
G19C U26A | 0.13
G19C U26G | 0.109
G19C U67G | 0.159
G19C U67A | 0.0765
U20C C45G | 0.217
U20C C45A | 0.219
U20C C45U | 0.201
G19U A51G | 0.538
G19U A51U | 0.476
G19U U49C | 0.594
G19U U49G | 0.459
U20A U49A | 0.125
U20A C45U | 0.144

Variant | self-cleavage
U20C U26C | 0.235
U20C U26G | 0.114
U20C U26A | 0.205
G19U A42G | 0.326
G19U A42U | 0.327
G19U A42C | 0.269
G19C U44G | 0.164
G19C U44A | 0.185
U20C C54U | 0.182
U20C C54G | 0.206
G19U C39G | 0.264
G19U C39U | 0.22
G19U C39A | 0.188
U20C | 0.222
U20A | 0.157
U20A G30C | 0.141
U20A G30U | 0.109
U20A G30A | 0.192
U20A G56C | 0.113
U20A G56U | 0.217
U20A G56A | 0.184
G19U | 0.644
